From patent US20220119534A1 (DRAGONFLY THERAPEUTICS, published 2022)
“And” between values parts separate entries of the source, which are not always exact repeats. Equal entries are not always repeated.

T1: Human CD32a H131 (human, UniProt P12318 36-218, limits assumed, biotinylated)
T1 construct: Bought recombinant receptor; also called hFcγRIIa H131
T1 sequence (looked up): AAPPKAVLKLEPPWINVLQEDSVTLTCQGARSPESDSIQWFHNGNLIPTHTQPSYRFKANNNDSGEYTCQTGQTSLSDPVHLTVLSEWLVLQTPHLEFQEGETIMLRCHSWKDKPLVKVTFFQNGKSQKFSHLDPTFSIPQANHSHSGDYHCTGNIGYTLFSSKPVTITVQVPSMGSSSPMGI

T2: Human CD32a R131 (human, UniProt P12318 36-218, limits assumed, biotinylated)
T2 construct: Bought recombinant receptor; also called hFcγRIIa R131
T2 sequence (looked up): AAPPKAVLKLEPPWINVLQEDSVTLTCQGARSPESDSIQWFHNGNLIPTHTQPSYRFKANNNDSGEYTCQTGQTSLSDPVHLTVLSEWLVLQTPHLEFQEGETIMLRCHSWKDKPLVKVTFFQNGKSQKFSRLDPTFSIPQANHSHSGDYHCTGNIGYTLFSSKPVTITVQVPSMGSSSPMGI

T3: human CLEC12A on cells (HL60, PL21, Ba/F3-hCLEC12A) (human, UniProt Q5QGZ9 1-265)
T3 construct: Endogenous on the AML lines HL60 and PL21; brought into mouse Ba/F3 cells by retroviral transduction; The cell line stands under assay; also called CLL-1
T3 sequence: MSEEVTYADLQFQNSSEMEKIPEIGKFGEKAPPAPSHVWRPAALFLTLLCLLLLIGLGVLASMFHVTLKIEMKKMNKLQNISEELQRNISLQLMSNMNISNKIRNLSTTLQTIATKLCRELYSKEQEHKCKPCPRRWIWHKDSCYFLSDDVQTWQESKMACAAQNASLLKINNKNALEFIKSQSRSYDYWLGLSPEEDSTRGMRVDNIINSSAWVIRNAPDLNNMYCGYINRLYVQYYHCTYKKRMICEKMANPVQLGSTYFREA

T4: mFc-hNKG2D (human, UniProt P26718 73-216)
T4 construct: extracellular domain; Recombinant mFc-tagged NKG2D dimer, made in house; also called human NKG2D; not shown: mouse Fc tag
T4 sequence (looked up): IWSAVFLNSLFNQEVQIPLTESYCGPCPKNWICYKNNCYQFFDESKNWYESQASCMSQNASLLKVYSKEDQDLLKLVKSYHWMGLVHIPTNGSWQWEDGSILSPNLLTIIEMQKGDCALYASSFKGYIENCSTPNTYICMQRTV

T5: Human CLEC12A-His (human, UniProt Q5QGZ9 65-265)
T5 construct: Recombinant soluble protein made in house; also called hCLEC12A-His; hCLEC12A; not shown: His tag
T5 sequence: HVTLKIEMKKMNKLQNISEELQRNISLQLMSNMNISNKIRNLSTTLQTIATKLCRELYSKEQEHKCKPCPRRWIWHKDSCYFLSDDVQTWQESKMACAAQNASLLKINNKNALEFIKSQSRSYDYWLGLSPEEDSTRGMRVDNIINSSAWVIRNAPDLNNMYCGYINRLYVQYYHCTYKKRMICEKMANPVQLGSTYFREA

T6: recombinant human CD32b (human, UniProt P31994 46-217, limits assumed, biotinylated)
T6 construct: also called FcγRIIb
T6 sequence (looked up): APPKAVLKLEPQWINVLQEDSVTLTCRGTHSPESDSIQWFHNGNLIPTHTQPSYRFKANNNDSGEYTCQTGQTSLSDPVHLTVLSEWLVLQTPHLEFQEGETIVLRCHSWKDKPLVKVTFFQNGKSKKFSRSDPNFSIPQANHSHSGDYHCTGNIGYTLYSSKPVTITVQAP


Assays:
Human CD32a H131 = target: T1, Human CD32a H131; experiment: SPR, steady state fit
Human CD32a R131 = target: T2, Human CD32a R131; experiment: SPR, steady state fit
Cynomolgus CD64 = target: T7, Cynomolgus CD64 (cynomolgus monkey, UniProt A0A2K5U901 33-309, Probably biotinylated for capture, as in the sister examples (p-1094).); experiment: SPR, cynomolgus CD64 captured
T7 construct: Bought recombinant receptor; also called cFcγRI; Cynomolgus CD64 (FcγRI); not shown: The vendor's biotinylation and purification tag
T7 sequence (A0A2K5U901 entry or part of it limits assumed): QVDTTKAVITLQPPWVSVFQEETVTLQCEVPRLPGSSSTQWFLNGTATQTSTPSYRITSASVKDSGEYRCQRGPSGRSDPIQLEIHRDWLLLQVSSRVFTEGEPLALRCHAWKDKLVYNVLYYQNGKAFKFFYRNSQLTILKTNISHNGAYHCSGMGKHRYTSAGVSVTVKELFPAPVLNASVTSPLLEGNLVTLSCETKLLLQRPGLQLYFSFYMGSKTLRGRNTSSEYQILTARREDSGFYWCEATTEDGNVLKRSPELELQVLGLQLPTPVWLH

[1] = target: T3, human CLEC12A on cells (HL60, PL21, …); experiment: flow cytometry, HL-60 cells
mFc-hNKG2D = target: T4, mFc-hNKG2D; experiment: SPR; sample after pH 8.0, 40 C, 2 weeks
Human CD16a V158 [2] = target: T8, Human CD16a V158 (human, UniProt P08637 17-208, biotinylated); experiment: SPR; sample after pH 8.0, 40 C, 2 weeks
T8 construct: Bought recombinant receptor; also called hCD16a (V158); hFcγRIIIa V158
T8 sequence (P08637 17-208 F176V limits assumed): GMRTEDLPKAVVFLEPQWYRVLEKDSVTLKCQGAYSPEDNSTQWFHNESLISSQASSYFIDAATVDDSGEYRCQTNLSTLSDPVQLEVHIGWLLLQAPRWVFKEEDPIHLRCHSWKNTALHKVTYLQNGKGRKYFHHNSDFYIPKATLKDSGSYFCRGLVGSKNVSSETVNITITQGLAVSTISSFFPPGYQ

Human CLEC12A-His = target: T5, Human CLEC12A-His; experiment: SPR; sample after 4 weeks at 40 C in HST pH 6.0
Human CD16a V158 [3] = target: T8, Human CD16a V158; experiment: SPR; sample after 4 weeks at 40 C in HST pH 6.0
recombinant human FcRn = target: T9, recombinant human FcRn (human, UniProt P55899 24-297; P61769 21-119); experiment: SPR 25C, pH 6.0, steady state; pH 6.0; fourth replicate
T9 construct: also called hFcRn

recombinant human CD32b = target: T6, recombinant human CD32b; experiment: SPR 25C, steady state, average

| Kd (Human CD32a H131) | Kd (Human CD32a R131) | Kd (Cynomolgus CD64) | koff (Cynomolgus CD64) | kon (Cynomolgus CD64) | EC50 [1] [nM] | Kd (mFc-hNKG2D) [nM] | koff (mFc-hNKG2D) [s⁻¹] | kon (mFc-hNKG2D) [M⁻¹ s⁻¹] | Kd (Human CD16a V158 [2]) [nM] | koff (Human CD16a V158 [2]) [s⁻¹] | kon (Human CD16a V158 [2]) [M⁻¹ s⁻¹] | Kd (Human CLEC12A-His) [nM] | koff (Human CLEC12A-His) [s⁻¹] | kon (Human CLEC12A-His) [M⁻¹ s⁻¹] | Kd (Human CD16a V158 [3]) [nM] | koff (Human CD16a V158 [3]) [s⁻¹] | kon (Human CD16a V158 [3]) [M⁻¹ s⁻¹] | Kd (recombinant human FcRn) [nM] | Kd (recombinant human CD32b) [nM] | Binder |
| --- | --- | --- | --- | --- | --- | --- | --- | --- | --- | --- | --- | --- | --- | --- | --- | --- | --- | --- | --- | --- |
| 1040 nM and 921 nM and 1070 nM and 1020 nM | 1380 nM and 1290 nM and 1800 nM and 1130 nM | 2.2 nM and 1.5 nM and 1.9 nM and 2.1 nM | 0.00012 s⁻¹ and 0.00011 s⁻¹ | 54000 M⁻¹ s⁻¹ and 80000 M⁻¹ s⁻¹ and 57000 M⁻¹ s⁻¹ and 55000 M⁻¹ s⁻¹ | 0.6 | 779 | 0.121 | 156000 | 173 | 0.0191 | 110000 | 1.81 | 0.0014 | 776000 | 194 | 0.0201 | 103000 | – | – | AB0192 TriNKET (other, the condition stands under assay; also called AB0192 Lot AB0192-005) EVQLVESGGGVVQPGGSLRLSCAASGFTFNAFGMHWVRQAPGKCLEWVAFISSGSTSIYYANTVKGRFTISRDNSKNTLYLQMNSLRAEDTAVYYCARDGYPTGGAMDYWGQGTSVTVSSGGGGSGGGGSGGGGSGGGGSDIQMTQSPSSLSASVGDRVTITCKASQDIYNYLSWFQQKPGKAPKPLIYRANILVSGVPSRFSGSGSGQDYTFTISSLQPEDIATYYCLQFDAFPFTFGCGTKLEIKGSDKTHTCPPCPAPELLGGPSVFLFPPKPKDTLMISRTPEVTCVVVDVSHEDPEVKFNWYVDGVEVHNAKTKPREEQYNSTYRVVSVLTVLHQDWLNGKEYKCKVSNKALPAPIEKTISKAKGQPREPRVYTLPPCRDELTKNQVSLTCLVKGFYPSDIAVEWESNGQPENNYKTTPPVLVSDGSFTLYSKLTVDKSRWQQGNVFSCSVMHEALHNHYTQKSLSLSPG heavy: EVQLVESGGGLVKPGGSLRLSCAASGFTFSSYSMNWVRQAPGKGLEWVSSISSSSSYIYYADSVKGRFTISRDNAKNSLYLQMNSLRAEDTAVYYCARGAPIGAAAGWFDPWGQGTLVTVSSASTKGPSVFPLAPSSKSTSGGTAALGCLVKDYFPEPVTVSWNSGALTSGVHTFPAVLQSSGLYSLSSVVTVPSSSLGTQTYICNVNHKPSNTKVDKKVEPKSCDKTHTCPPCPAPELLGGPSVFLFPPKPKDTLMISRTPEVTCVVVDVSHEDPEVKFNWYVDGVEVHNAKTKPREEQYNSTYRVVSVLTVLHQDWLNGKEYKCKVSNKALPAPIEKTISKAKGQPREPQVCTLPPSRDELTENQVSLTCLVKGFYPSDIAVEWESNGQPENNYKTTPPVLDSDGSFFLYSWLTVDKSRWQQGNVFSCSVMHEALHNHYTQKSLSLSPG light: DIQMTQSPSSVSASVGDRVTITCRASQGISSWLAWYQQKPGKAPKLLIYAASSLQSGVPSRFSGSGSGTDFTLTISSLQPEDFATYYCQQGVSFPRTFGGGTKVEIKRTVAAPSVFIFPPSDEQLKSGTASVVCLLNNFYPREAKVQWKVDNALQSGNSQESVTEQDSKDSTYSLSSTLTLSKADYEKHKVYACEVTHQGLSSPVTKSFNRGEC |
| – | – | – | – | – | – | – | – | – | – | – | – | – | – | – | – | – | – | 1600 | 6600 | F3'-1602 TriNKET (other, CLEC12A scFv-Fc, NKG2D A49MI Fab-Fc, human IgG1 Fc; also called AB0237) QLQLQESGPGLVKPSETLSLTCTVSGFSLTNYGLHWIRQPPGKCLEWIGVIWSGGKTDYNPSLKSRVTISKDTSKNQFSLKLSSVQAADTAVYYCAKYDYDDSLDYWGQGTLVTVSSGGGGSGGGGSGGGGSGGGGSDIQMTQSPSSLSASVGDRVTITCHASQNINFWLSWYQQKPGKAPKLLIYEASNLHTGVPSRFSGSGSGTRFTLTISSLQPEDIATYYCQQSHSYPLTFGCGTKLEIKGSDKTHTCPPCPAPELLGGPSVFLFPPKPKDTLMISRTPEVTCVVVDVSHEDPEVKFNWYVDGVEVHNAKTKPREEQYNSTYRVVSVLTVLHQDWLNGKEYKCKVSNKALPAPIEKTISKAKGQPREPRVYTLPPCRDELTKNQVSLTCLVKGFYPSDIAVEWESNGQPENNYKTTPPVLVSDGSFTLYSKLTVDKSRWQQGNVFSCSVMHEALHNHYTQKSLSLSPG heavy: EVQLVESGGGLVKPGGSLRLSCAASGFTFSSYSMNWVRQAPGKGLEWVSSISSSSSYIYYADSVKGRFTISRDNAKNSLYLQMNSLRAEDTAVYYCARGAPIGAAAGWFDPWGQGTLVTVSSASTKGPSVFPLAPSSKSTSGGTAALGCLVKDYFPEPVTVSWNSGALTSGVHTFPAVLQSSGLYSLSSVVTVPSSSLGTQTYICNVNHKPSNTKVDKKVEPKSCDKTHTCPPCPAPELLGGPSVFLFPPKPKDTLMISRTPEVTCVVVDVSHEDPEVKFNWYVDGVEVHNAKTKPREEQYNSTYRVVSVLTVLHQDWLNGKEYKCKVSNKALPAPIEKTISKAKGQPREPQVCTLPPSRDELTENQVSLTCLVKGFYPSDIAVEWESNGQPENNYKTTPPVLDSDGSFFLYSWLTVDKSRWQQGNVFSCSVMHEALHNHYTQKSLSLSPG light: DIQMTQSPSSVSASVGDRVTITCRASQGISSWLAWYQQKPGKAPKLLIYAASSLQSGVPSRFSGSGSGTDFTLTISSLQPEDFATYYCQQGVSFPRTFGGGTKVEIKRTVAAPSVFIFPPSDEQLKSGTASVVCLLNNFYPREAKVQWKVDNALQSGNSQESVTEQDSKDSTYSLSSTLTLSKADYEKHKVYACEVTHQGLSSPVTKSFNRGEC |
